Test results reported in patent publication US5541071 (New England Medical Center Hospitals, Inc., dated 1996).
Square brackets hold non-standard residues; d marks the D form. Ends that are not written are not given here. sY = N[C@@H](Cc1ccc(OS(=O)(=O)O)cc1)C(=O)O

Assays:
[1] = target: canine parietal cell gastrin receptor (recombinant, expressed from clone GR-1 in COS-7 cells) (canine)
[2] = target: T1, canine parietal cell gastrin receptor (recombinant, expressed from clone GR-1 in COS-7 cells) (canine); test: competition with 125I-CCK-8 on isolated membranes of GR-1 transfected COS-7 cells, filtration
T1 chain: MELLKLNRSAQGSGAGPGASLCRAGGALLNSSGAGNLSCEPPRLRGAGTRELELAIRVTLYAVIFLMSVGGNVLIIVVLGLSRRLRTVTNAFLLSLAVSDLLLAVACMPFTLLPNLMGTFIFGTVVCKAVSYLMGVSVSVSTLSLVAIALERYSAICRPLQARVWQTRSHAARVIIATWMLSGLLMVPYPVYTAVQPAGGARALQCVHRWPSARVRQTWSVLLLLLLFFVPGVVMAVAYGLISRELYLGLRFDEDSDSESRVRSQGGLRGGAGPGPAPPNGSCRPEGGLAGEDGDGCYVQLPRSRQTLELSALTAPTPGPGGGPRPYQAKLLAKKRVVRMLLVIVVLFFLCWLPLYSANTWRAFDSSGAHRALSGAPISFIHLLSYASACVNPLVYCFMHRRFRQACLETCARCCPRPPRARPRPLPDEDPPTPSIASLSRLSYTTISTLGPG
Description: Binding parameters were also measured in isolated plasma membranes from COS-7 cells transfected with GR-1. Binding was performed for 60 min at 22° C.

[3] = target: T1, canine parietal cell gastrin receptor …; test: competition with 40 pM 125I-CCK-8 on intact GR-1 transfected COS-7 cells
Description: (§1) COS-7 cells (1.5 ×10^6) were plated in 10 cm culture dishes (Nunc) and grown in DMEM/10% fetal calf serum, 5% CO_2 at 37° C. […] Twenty-four hours following transfection, cells were split into 24-well dishes (Nunc), 5000 cells/well. […] Equilibrium binding occurred after incubation for 80 min at 37° C. Cell monolayers were subsequently washed three times and bound radioactivity was quantified after cell hydrolysis in 1N NaOH.

[4] = target: canine parietal cell gastrin receptor (recombinant, expressed from clone GR-1 in COS-7 cells) (canine); remark: listed apart in the source
[5] = target: T1, canine parietal cell gastrin receptor …; test: radioligand saturation binding, 2.5 to 1,000 pM 125I-CCK-8, GR-1 transfected COS-7 cells
Description: as §1

QGPWLEEEEEAYGWMDF-NH2 (ends and bridges not checked) [gastrin I] was tested, and the free cytosolic calcium, [Ca2+] (fura-2 fluorescence) [1] was 142 nM, the IC50 [2] was 0.4 nM and the IC50 [3] was 0.26 nM. The phosphoinositide metabolites (Ins-1,4,5-P3, Ins-1,3,4,5-P4) by HPLC (% over control) [4] was 741.

For D[sY]MGWMDF-NH2 [CCK-8 (unlabeled)], the IC50 [2] was 0.08 nM and the IC50 [3] was 0.09 nM.

Work on DYMGWMDF (ends and bridges not checked; also: 125I label, site not given here) [125I-CCK-8] yielded a Kd [5] of 0.08 nM.

Binder DYMGWMDF-NH2 [CCK-8-desulfate] has an IC50 [2] of 1.5 nM.
